Here are results for six molecules from US20230295345A1 (published 2023).

Assay [1] deals with T1, cynomolgus monkey TMPRSS6 expressed on HEK293T cells (CynoTMPRSS6-(His)6) (cynomolgus monkey, UniProt Q8IU80 10-811 (human entry)).
T1 chain: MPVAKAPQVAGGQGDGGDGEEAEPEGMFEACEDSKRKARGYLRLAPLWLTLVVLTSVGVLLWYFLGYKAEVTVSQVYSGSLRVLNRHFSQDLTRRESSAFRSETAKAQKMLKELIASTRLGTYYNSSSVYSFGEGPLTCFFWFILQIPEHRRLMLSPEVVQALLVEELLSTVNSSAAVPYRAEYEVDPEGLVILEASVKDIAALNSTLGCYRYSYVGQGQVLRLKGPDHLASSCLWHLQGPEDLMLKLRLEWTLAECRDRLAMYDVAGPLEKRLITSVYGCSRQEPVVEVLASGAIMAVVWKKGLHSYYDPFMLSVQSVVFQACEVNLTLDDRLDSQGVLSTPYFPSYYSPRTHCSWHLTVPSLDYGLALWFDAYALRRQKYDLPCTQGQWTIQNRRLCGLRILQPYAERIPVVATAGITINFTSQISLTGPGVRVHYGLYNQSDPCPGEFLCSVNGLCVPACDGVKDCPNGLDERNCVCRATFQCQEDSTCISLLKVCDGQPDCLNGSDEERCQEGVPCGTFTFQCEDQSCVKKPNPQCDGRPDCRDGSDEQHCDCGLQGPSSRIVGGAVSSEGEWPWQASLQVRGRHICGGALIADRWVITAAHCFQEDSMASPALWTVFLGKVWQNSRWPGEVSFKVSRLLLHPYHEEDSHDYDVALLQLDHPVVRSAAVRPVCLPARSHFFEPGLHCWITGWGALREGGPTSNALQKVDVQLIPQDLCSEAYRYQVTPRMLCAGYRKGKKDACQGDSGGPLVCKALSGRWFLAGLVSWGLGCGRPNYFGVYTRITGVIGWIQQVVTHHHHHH
The experiment in a line: cell surface ELISA on fixed HEK293T cells expressing cynomolgus monkey TMPRSS6. The protocol: HEK293T cells stably expressing mouse TMPRSS6 (generated by LakePharma Inc as described above, FIGS. 4J, 4L, 4N, 4P, 4R, 4T) or cynomolgus monkey (generated in house as described above, FIGS. 4K, 4M, 4O, 4Q, 4S, 4U) were fixed with methanol (100%), and washed with dPBS (Dulbecco’s phosphate-buffered saline, Corning Cellgro) before incubation with various concentrations of anti-TMPRSS6 antibodies and their humanized variants diluted in BSA medium (DMEM + 1% Pen/Strep + 10 mM HEPES + 1 mg/ml BSA (Sigma-Aldrich)). Purified mouse IgG (FIGS. 4J-4O) or Human IgG1 (FIGS. 4P-4U) was used as a control. After incubation, cells were washed with BSA medium and then incubated with goat anti-mouse (Invitrogen, FIGS. 4J-4O) or anti-human (Millipore, FIGS. 4P-4U) IgG conjugated with HRP as a 2° antibody. Finally, cells were washed with dPBS to remove unbound antibody and color developed with ELISA liquid substrate (Sigma-Aldrich), followed by stopping the reaction with addition of the same volume of ELISA liquid substrate of 1 M H₂SO₄. Bound antibody was measured by absorbance at OD₄₅₀ₙₘ.

The target in assay [2] is T1, cynomolgus monkey TMPRSS6 expressed on …. The experiment in a line: FACS on HEK293T cells transiently expressing cynomolgus monkey TMPRSS6. The protocol:
(§1) Selected anti-TMPRSS6 antibodies were tested to determine whether any are capable of binding to TMPRSS6 from mouse and/or cynomolgus monkey. HEK293T cells stably expressing human TMPRSS6 (HuTMPRSS6-(His)₆) (generated by LakePharma Inc as described above), HEK293T cells stably expressing mouse TMPRSS6 (MoTMPRSS6-(His)₆) (SEQ ID NO: 98) (generated by LakePharma Inc as described above) and HEK293T cells transiently expressing cynomolgus monkey TMPRSS6 (CynoTMPRSS6-(His)₆) (SEQ ID NO: 99) (generated in house) were collected. HEK293T cells stably expressing human TMPRSS6 were used as a positive control and HEK293T cells were used as a negative control (as described above). Cells were blocked with dPBS + 3% BSA before incubation with anti-TMPRSS6 antibodies diluted in dPBS + 3% BSA. After incubation, cells were washed with dPBS and followed by another incubation with goat anti-mouse IgG conjugated with AlexaFluor-488 as a 2° antibody (Invitrogen). At last, cells were washed with dPBS to remove unbound antibody, re-suspended with dPBS + 1 mM EDTA, and then subjected to FACS analysis using a NOVOCYTE® Flow Cytometer (ACEA Biosciences, Inc., San Diego CA). Bound antibody was determined by excitation at 488 nm and measurement of emission (FITC-A) at 530 nm. Results for these assays are shown in histogram plots in FIGS. 4A-4I.

Assay [3] deals with T2, mouse TMPRSS6 expressed on HEK293T cells (MoTMPRSS6-(His)6) (mouse, UniProt Q9DBI0 1-811).
T2 construct: stably expressed in HEK293T cells; also called murine TMPRSS6
T2 sequence: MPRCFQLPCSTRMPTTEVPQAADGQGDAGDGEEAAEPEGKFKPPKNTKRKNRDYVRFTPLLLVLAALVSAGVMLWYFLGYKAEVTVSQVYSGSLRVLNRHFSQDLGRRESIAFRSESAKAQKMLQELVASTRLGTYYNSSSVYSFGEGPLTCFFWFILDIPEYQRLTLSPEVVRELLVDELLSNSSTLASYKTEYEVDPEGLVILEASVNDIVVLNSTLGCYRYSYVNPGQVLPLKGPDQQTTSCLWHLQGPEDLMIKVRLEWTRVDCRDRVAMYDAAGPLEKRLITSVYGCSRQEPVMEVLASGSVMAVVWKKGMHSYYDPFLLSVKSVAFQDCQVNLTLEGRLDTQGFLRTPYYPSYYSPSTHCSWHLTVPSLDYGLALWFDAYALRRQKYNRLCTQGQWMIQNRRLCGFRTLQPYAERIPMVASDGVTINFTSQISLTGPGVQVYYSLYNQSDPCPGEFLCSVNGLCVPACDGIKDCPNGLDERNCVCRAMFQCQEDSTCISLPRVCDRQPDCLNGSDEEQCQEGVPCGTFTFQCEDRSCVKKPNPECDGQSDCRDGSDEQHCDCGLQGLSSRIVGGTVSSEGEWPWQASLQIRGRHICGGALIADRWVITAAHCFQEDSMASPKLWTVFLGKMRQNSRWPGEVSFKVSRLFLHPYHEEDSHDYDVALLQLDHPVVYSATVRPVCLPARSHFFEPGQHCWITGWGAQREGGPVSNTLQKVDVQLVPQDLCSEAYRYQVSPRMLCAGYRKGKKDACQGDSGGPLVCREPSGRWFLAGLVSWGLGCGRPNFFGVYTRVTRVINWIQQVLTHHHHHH
Description: FACS on HEK293T cells stably expressing mouse TMPRSS6. How it is done:
as §1

B1: hzMWTx-001Var anti-TMPRSS6 antibody (antibody, human IgG1, kappa, N297A, V domains shown)
VH: EVQLVQSGAEVKKPGASVKVSCKASGYTFTSYWITWVRQAPGQRLEWIGNIYPGSGSTYYNEKFKSKATITRDTSSRTAYMELSSLRSEDTAVYYCAPYDADYAMDYWGQGTLVTVSS
VL: DIQMTQSPSSLSASVGDRVTITCKASQDISNYLSWFQQKPGKAPKLLIYRANRLVEGVPSRFSGSGSGTDFTLTISSLQPEDFATYFCLQYDEFPLTFGGGTKVEIKR
notes: Humanized variant of MWTx-001, human IgG1/kappa
In the case of B1, the binding result in assay [1] is “binds”.

B2: MWTx-003 anti-TMPRSS6 antibody (antibody, mouse IgG2b, kappa, V domains shown)
VH: EVQLQQSGAELVKPGASVKLSCTASGFNIEDYYIHWVKERTEQGLEWIGRIDPEDGETTYAPQFQGKATIIPDTSSNTAYMQLSSLTSEDAAVYYCARSIYLDPMDYWGQGTSVTVSS
VL: DIVMTQSHKFMSTSVGDRVSITCKASQDVTTAVAWYQQKPGQSPKILIYWATTRHTGVPDRFTGSISGTTYILTISSVQAEDLALYYCQQHYSTPYTFGGGTKLEIKR
notes: Mouse monoclonal antibody from a hybridoma (ATCC PTA-126761); also called r4K12B (recombinantly expressed version, same HC and LC)
As for B2, the binding result in assay [2] is recorded as “binds”.

B3: hzMWTx-002Var anti-TMPRSS6 antibody (antibody, human IgG1, kappa, N297A, V domains shown)
VH: EVQLVQSGAEVKKPGASVKVSCKASGFNIKDYYIHWVRQATGQGLEWMGRIDPEDAESEYAPKFQGRVTITADTSTDTAYMELSSLRSEDTAVYYCTRGDSMMVTYFDYWGQGTLVTVSS
VL: DIQMTQSPSSLSASVGDRVTITCKASQDVSTAVAWYQQKPGKAPKLLIYWAFTRHTGVPSRFSGSGSGTDYALTISSLQPEDFATYYCQQHYRSPWTFGGGTKVEIKR
notes: Humanized variant of MWTx-002, human IgG1/kappa
Take B3: the binding result in assay [1] is “binds”.

B4: MWTx-002 anti-TMPRSS6 antibody (antibody, mouse IgG2b, kappa, V domains shown)
VH: EVQLQQSGAELVKPGASVKLSCTASGFNIKDYYIHWVKERTEQGLEWFGRIDPEDGESEYAPKFQGKATLTADTSSNTAYLQLSSLTSEDTAVYYCTRGDSMMVTYFDYWGQGTTLTVSS
VL: DIVMTQSHKFMSTSVGDRVSITCKASQDVSTAVAWYQQKPGQSPKLLIYWAFTRHTGVPDRFTSTGSGTDYALTISSVQAEDLALYYCQQHYRSPWTFGGGTKLEIKR
notes: Mouse monoclonal antibody from a hybridoma (ATCC PTA-126760)
On to B4, for which the figures for the binding result in assay [3] and in assay [1] were “no binding” and “binds”, respectively.

B5: hzMWTx-003Var anti-TMPRSS6 antibody (antibody, human IgG1, kappa, L234A L235A, V domains shown)
VH: QVQLVQSGAEVKKPGASVKVSCKASGFNIEDYYMHWVRQAPGQRLEWMGRIDPEDAETTYSPKFQGRVTIIPDTSANTAYMELSSLRSEDTAVYYCARSIYLDPMDYWGQGTLVTVSS
VL: DIQMTQSPKSLSASVGDRVTITCRASQDVTTALAWYQQKPGQSPKLLIYWATTRHSGVPSRFSGSGSGTDFTLTISSLQPEDFATYYCQQHYSTPYTFGQGTKLEIKR
notes: Humanized variant of MWTx-003, human IgG1/kappa
For B5, in assay [1], the binding result was “binds”.

B6: MWTx-001 anti-TMPRSS6 antibody (antibody, mouse IgG2a, kappa, V domains shown)
VH: QVQLQQPGAELAKPGASVKMSCKASGYTFTSYWITWVKQRPGQDLEWIGNIYPGSGSTYYNEKFKSKATLTVDTSSRTAYMQLSSLTSADSAVYYCAPYDSDYAMDYWGQGTSVTVSS
VL: DIKMTQSPSSMYASLGERVTITCKASQDINNYLSWFQQKPGKSPKTLIYRANRLVDGVPSRVSGSGSGQDYSLTISSLEYEDVGIYFCLQYDEFPLTFGAGTKLELKR
notes: Mouse monoclonal antibody from a hybridoma (ATCC PTA-126759)
As for B6, the binding result in assay [1] was “binds”.
